Measurements: the supplement of paper PMC9170038

Tested on: MS2 coat protein
Test: apparent KD of MS2 coat protein; designed switch direction (-1 OFF switch, 1 ON switch): 1; higher = weaker reporter binding
In short: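 An oligonucleotide input, 200 uM small-molecule ligand, or no input was present during titration of SNAP-549-labelled MS2 coat protein, which was doubled from 0.7 or 1.5 nM to 3 µM. Designed RNA switches had been transcribed on Illumina chips by stalled E. coli RNA polymerase. Apparent KD per design is the median over clusters of curves fitted to normalised cluster fluorescence.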

[1] = input ligand: microRNA oligo, concentration not stated
[2] = Eterna round: R95, input ligand: FMN 200 uM
[3] = Eterna round: R95, input ligand: microRNA oligo, concentration not stated
[4] = Eterna round: R95, input ligand: none

Row | Sequence | apparent KD of MS2 coat protein (input ligand: FMN 200 uM) | apparent KD of MS2 coat protein [1] | apparent KD of MS2 coat protein (input ligand: none) | apparent KD of MS2 coat protein [2] | apparent KD of MS2 coat protein [3] | apparent KD of MS2 coat protein [4]
1 | AUACUCAUGUAAGGAUAUGCAGCCGUUUCGGCUGCAGAAGGUACUAUAAUACAUGAGGAUCACCCAUGUCUCUAUUAUUUAGUU [JL SSNG1 1.46] (Eterna round: R96, puzzle: Same State NG 1) | 72.1 nM | 46.6 nM | 55.1 nM | – | – | –
2 | GGAGCAGGGUGAGGAUAUGUAAAAUUCGAAAGGACAGAAGGCACUUAACCAACAUGAGGAUCACCCAUGUAGGCGACGGCACCA [Eternabot solution 8] (Eterna round: R96, puzzle: Same State NG 1) | – | 19.9 nM | – | – | – | –
3 | ACAUGAGAAUGAGGAUAUGUUGUACCUACAUGUGACAUGAGGAUCACCCAUGUGGUAAGUAUGAUACAGAAGGCAUAGAUAUGU [Equivalance 62 - Jieux - Same State NG 2] (Eterna round: R96, puzzle: Same State NG 2) | 18.9 nM | 18 nM | 32.2 nM | – | – | –
4 | UGUUGUAUUACAGGAUAUCUAUUAUUGUUAUUUAGAGAAGGGUAUUCACAUGAGGAUCACCCAUGUAUAUACGAGGAAGUUGUG [JMF's solution 18] (Eterna round: R96, puzzle: Same State NG 1) | – | 39.9 nM | – | – | – | –
5 | AAUUUAAUACAUGAGGAUCACCCAUGUAAUACUAGUAAGAUCUAGGAUAUCAGCUCGUUUAGAGCUGAGAAGGAGAUCACAUGU [SSNG3/19-C3] (Eterna round: R96, puzzle: Same State NG 3) | – | 62.1 nM | – | – | – | –
6 | GCCGCGUUUCGCGCCUACAUGAGGAUCACCCAUGUUUGUAGGCAGGAUAUCGUCCGCUUUGCGGGCGAGAAGGGCUGUUGUGGC [salish99_SSNG3_R04_021] (Eterna round: R96, puzzle: Same State NG 3) | 47 nM | 43.5 nM | 54.8 nM | – | – | –
7 | UACAAUCUAUCUGAGGAUAUCAUGAAAAAAACAUGAGGAUCACCCAUGUGCAGGAAAACUGCAUAUGAGAAGGCAGAUAGAUUGU [salish99_SS2_r3_006] (Eterna round: R96, puzzle: Same State 2) | – | 585 nM | – | – | – | –
8 | CUGAGCAAUCAAGGAUAUCACGUCGAAUAGACGUGAGAAGGUGAUCAUAACAUGAGGAUCACCCAUGUAUUACAUGAAGCUCAG [SSNG1/1-A1] (Eterna round: R96, puzzle: Same State NG 1) | 512 nM | 399 nM | 1280 nM | – | – | –
9 | GGAGCCGGCACCGAGGAUAUUCAUAUUAAAACAUGAGGAUCACCCAUGUAGCUCGAAAGAGCUUGGGAGAAGGCGGAUCGGCUCG [Xeonanis - 29] (Eterna round: R96, puzzle: Same State 2) | 37.3 nM | 322 nM | 633 nM | – | – | –
10 | UGUUGUAUUACAGGAUAUCUAUUAUUAUUAUUUAGAGAAGGGUAUUCACAUGAGGAUCACCCAUGUAUAUACGAGGAAGUUGUG [JMF's solution 17] (Eterna round: R96, puzzle: Same State NG 1) | – | 33.8 nM | – | – | – | –
11 | GGAUAACAUGAGGAUCACCCAUGUCAACAAAGUCGAGGAUAUGGGCAAUUAUAAUUAGAACCAGAAGGCGAAUAGG [Mat - Same State 1 - Mod of UCT - D44] (puzzle: Same State 1) | – | – | – | 55.9 nM | 126 nM | 191 nM
12 | UAGUACAUGCUUUUUGUCCGUCUUAGAUAACAUGAGGAUCACCCAUGUAAGGUGAAAGUUAUAUAGUUUAGGAAUAU [JR_SHM208A_Sub057] (puzzle: Sensor for hsa-mir-208a) | – | – | – | 136 nM | 323 nM | 178 nM
13 | GCUCGAAUCAGAACCAACAUGAGGAUCACCCAUGUAUGUUGGUAGGAUAUCGUUUCUAAGAGAAACGAGAAGGGCCGAACGAGC [SameState NG3 #5] (Eterna round: R96, puzzle: Same State NG 3) | 224 nM | 132 nM | 212 nM | – | – | –
14 | GGUCCAGCCUGAGCUGGACUACAGCAUGUACAUGAGGAUCACCCAUGUCAUGUACAAGUAUGUUGUUUGUCUUAAAA [Sensorship 7 - Jieux - Sensor for hsa-mir-208a] (puzzle: Sensor for hsa-mir-208a) | – | – | – | 80.8 nM | 37.5 nM | 108 nM
15 | AGCGGAUAACAGUAGGAUAUGGCCAACGCCACAUGAGGAUCACCCAUGUCGUACCGGCACCUGGACUAGAAGGACUGCCUCCCGC [Ariscedi] (puzzle: Same State 2) | – | – | – | – | 22.8 nM | –
16 | UUAUAACAUGAGGAUCACCCAUGUCAACAAAGUCGAGGAUAUGGGCAAGAAUUGAGAGAACCAGAAGGCGAAUAUU [Mat - Same State 1 - Mod of UCT - D31] (puzzle: Same State 1) | – | – | – | 78.4 nM | 131 nM | 148 nM
17 | AAUUGUUCCUGAGGAUAUCAGUAGUUUGCUUUUUGAGAAGGCAGUACAUGAGGAUCACCCAUGUUGUGGUUUGAUAGAAUGAUA [JR_SSNG1_Sub005] (Eterna round: R96, puzzle: Same State NG 1) | 184 nM | 101 nM | 180 nM | – | – | –
18 | GCGAGCGUACUUGCUACAUGAGGAUCACCCAUGUUUAUUGGACAGGAUAUGGUACCGUUUCGGUACCAGAAGGGUCCACAUGUA [JL SSNG3 3.85] (Eterna round: R96, puzzle: Same State NG 3) | 124 nM | 198 nM | 549 nM | – | – | –
19 | GUUACAUGAGGAUCACCCAUGUAUGUGUGGGAGUAAGUGUCUUAGGAUAUCUGUUAUUUAACUUAAGAGAAGGAAGAUUGUUGU [JMF's solution 43] (Eterna round: R96, puzzle: Same State NG 3) | 108 nM | 65.4 nM | 105 nM | – | – | –
20 | GCGGUACCUAACAUGAGGAUCACCCAUGUUCCGGAAACGGCACAGGAUAUCUGUCCGAAAAGGUCAGAGAAGGGUGAAAACCGC [Fiskers NG3ss - 94] (Eterna round: R96, puzzle: Same State NG 3) | 489 nM | 396 nM | 478 nM | – | – | –
21 | AAUUAAGAUCGAGGAUAUCACGUCGAAUAGACGUGAGAAGGCGAUCAUAACAUGAGGAUCACCCAUGUAUUACAUGAAUUAAUU [SSNG1/4-B1] (Eterna round: R96, puzzle: Same State NG 1) | 23.6 nM | 22.9 nM | 27 nM | – | – | –
